Assay [1] addresses T1, 4-1BB-His融合蛋白 (UniProt Q07011 24-186).
T1 construct: extracellular domain; also called 4-1BB融合蛋白; not shown: His tag
The experiment in a line: ELISA, fusion protein coated on the plate. Background: ELISA stands for enzyme-linked immunosorbent assay.

The target of assay [2] is T2, 4-1BB-rFc融合蛋白 (UniProt Q07011 24-186).
T2 construct: extracellular domain; also called 4-1BB融合蛋白; not shown: rFc part
The experiment in a line: ELISA, fusion protein coated on the plate.

The target of assay [3] is T3, OX40 expressed on cells (OX40-293F细胞; 19B3 HEK293 NF-κB报告细胞系) (UniProt P43489 29-277).
T3 sequence (looked up): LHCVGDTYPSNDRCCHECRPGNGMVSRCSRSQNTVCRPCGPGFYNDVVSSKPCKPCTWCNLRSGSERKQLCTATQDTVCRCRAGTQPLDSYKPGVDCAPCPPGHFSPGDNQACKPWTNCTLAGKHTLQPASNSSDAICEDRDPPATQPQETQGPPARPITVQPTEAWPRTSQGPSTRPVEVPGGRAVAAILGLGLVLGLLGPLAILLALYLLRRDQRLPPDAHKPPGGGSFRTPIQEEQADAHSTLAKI
The experiment in a line: cell-based or functional assay.

B1: 本发明抗OX40抗体 (murine monoclonal anti-OX40 antibody of the invention) (antibody, V domains shown)
VH: EVQLQQSGAELVKPGASVKLSCKASGYTFTNYWIHWVKQRPGQGLEWIGEINPSNGRTNSNEKFKNKATLTVDKSSSTAYMQLSSLTSEDSAVYYCAEAVPYYFVYWGQGTTLTVSS
VL: DIVMTQAASSLSASLGDRVTISCRASQDINNYLNWYQQKPDGTVKLLIYFTSGLRSGVPSRFSGSGSGTDYSLTISNLEQEDIATYFCQQGNTLPLTFGAGTKLELN
notes: also called 本发明OX40抗体; 靶向OX40的抗体
On to B1, for which the binding result in assay [1] and in assay [2] was “no binding” in each case. Also, the “NF-κB luciferase reporter (RLU) in 19B3 cells expressing OX40; 半数有效浓度(EC50)” value in assay [3] stood at 0.803 µg/mL.

The values above are taken from patent CN111303285A (BAILISIKANG BIOLOGICAL PHARMACEUTICAL HANGZHOU CO LTD, dated 2020).
